This note sets out measurements from the supplement of paper PMC5998384.

The subject of data set [1] is HeLa Kyoto. Description: thermal stability score vs G1/S (z-score of summed log2 fold changes over temperatures); higher = more thermally stable than in G1/S.
The test system of data set [2] is HeLa Kyoto. Description: solubility in G1/S (NP-40 vs SDS abundance) (log2 ratio); higher = more soluble. The settings on record: cell cycle stage: G1/S.
For data set [3], the system named is HeLa Kyoto. Description: melting temperature (median over replicates), in situ; higher = more thermally stable.
The subject of data set [4] is HeLa Kyoto. Description: solubility change mitosis vs G1/S (difference of NP-40 vs SDS log2 ratios) (log2 ratio difference); higher = more soluble in mitosis.
Where [5] appears, read: cell cycle stage: early G1 (4.5 h after nocodazole release).
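For melting temperature (median over replicates), in situ in this document: HeLa Kyoto cells synchronized by double thymidine or nocodazole block, proteins quantified by TMT10plex mass spectrometry, three independent biological replicates.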
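For solubility change mitosis vs G1/S (difference of NP-40 vs SDS log2 ratios) in this document: synchronized HeLa Kyoto cells (double thymidine block for G1/S, nocodazole release for mitosis), protein amounts in NP-40 versus SDS lysates quantified by mass spectrometry, three biological replicates.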
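For solubility in G1/S (NP-40 vs SDS abundance) in this document: HeLa Kyoto cells arrested at G1/S by double thymidine block, proteins quantified by TMT10plex mass spectrometry in mild NP-40 versus SDS extracts, three biological replicates.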
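For thermal stability score vs G1/S (z-score of summed log2 fold changes over temperatures) in this document: synchronized HeLa Kyoto cells, proteins quantified by TMT10plex mass spectrometry, three biological replicates, mitosis taken 0.5 h after nocodazole release, G1/S directly after double thymidine block.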

Regarding “MSQSKGKKRNPGLKIPKEAFEQPQTSSTPPRDLDSKACISIGNQNFEVKADDLEPIMELGRGAYGVVEKMRHVPSGQIMAVKRIRATVNSQEQKRLLMDLDISMRTVDCPFTVTFYGALFREGDVWICMELMDTSLDKFYKQVIDKGQTIPEDILGKIAVSIVKALEHLHSKLSVIHRDVKPSNVLINALGQVKMCDFGISGYLVDSVAKTIDAGCKPYMAPERINPELNQKGYSVKSDIWSLGITMIELAILRFPYDSWGTPFQQLKQVVEEPSPQLPADKFSAEFVDFTSQCLKKNSKERPTYPELMQHPFFTLHESKGTDVASFVKLILGD [MAP2K6]”, the thermal stability score turned out to be 1.49 in the data set on HeLa Kyoto [1] (setting [5]) and 0.537 in the data set on HeLa Kyoto [1] (cell cycle stage: mitosis). In addition, the “solubility in G1/S (log2)” value in the data set on HeLa Kyoto [2] was 0.225. Also, the melting temperature in the data set with HeLa Kyoto [3] (cell cycle stage: G1/S) was found to be 51.4 °C; in the data set with HeLa Kyoto [3] (cell cycle stage: mitosis), 52.5 °C. In addition, the “solubility change mitosis (log2)” value in the data set on HeLa Kyoto [4] is -0.158.
As for “MSQVKSSYSYDAPSDFINFSSLDDEGDTQNIDSWFEEKANLENKLLGKNGTGGLFQGKTPLRKANLQQAIVTPLKPVDNTYYKEAEKENLVEQSIPSNACSSLEVEAAISRKTPAQPQRRSLRLSAQKDLEQKEKHHVKMKAKRCATPVIIDEILPSKKMKVSNNKKKPEEEGSAHQDTAEKNASSPEKAKGRHTVPCMPPAKQKFLKSTEEQELEKSMKMQQEVVEMRKKNEEFKKLALAGIGQPVKKSVSQVTKSVDFHFRTDERIKQHPKNQEEYKEVNFTSELRKHPSSPARVTKGCTIVKPFNLSQGKKRTFDETVSTYVPLAQQVEDFHKRTPNRYHLRSKKDDINLLPSKSSVTKICRDPQTPVLQTKHRARAVTCKSTAELEAEELEKLQQYKFKARELDPRILEGGPILPKKPPVKPPTEPIGFDLEIEKRIQERESKKKTEDEHFEFHSRPCPTKILEDVVGVPEKKVLPITVPKSPAFALKNRIRMPTKEDEEEDEPVVIKAQPVPHYGVPFKPQIPEARTVEICPFSFDSRDKERQLQKEKKIKELQKGEVPKFKALPLPHFDTINLPEKKVKNVTQIEPFCLETDRRGALKAQTWKHQLEEELRQQKEAACFKARPNTVISQEPFVPKKEKKSVAEGLSGSLVQEPFQLATEKRAKERQELEKRMAEVEAQKAQQLEEARLQEEEQKKEELARLRRELVHKANPIRKYQGLEIKSSDQPLTVPVSPKFSTRFHC [TPX2]”, the thermal stability score with HeLa Kyoto [1] (setting [5]) was -0.935; with HeLa Kyoto [1] (cell cycle stage: mitosis), -2.05. For the same sequence, in the data set with HeLa Kyoto [2], the “solubility in G1/S (log2)” value is -0.167. Besides, the melting temperature turned out to be 53.8 °C in the data set with HeLa Kyoto [3] (cell cycle stage: G1/S) and 53.1 °C in the data set on HeLa Kyoto [3] (cell cycle stage: mitosis). The “solubility change mitosis (log2)” value in the data set with HeLa Kyoto [4] was determined as 0.425.
“MSQVLFHQLVPLQVKCKDCEERRVSIRMSIELQSVSNPVHRKDLVIRLTDDTDPFFLYNLVISEEDFQSLKFQQGLLVDFLAFPQKFIDLLQQCTQEHAKEIPRFLLQLVSPAAILDNSPAFLNVVETNPFKHLTHLSLKLLPGNDVEIKKFLAGCLKCSKEEKLSLMQSLDDATKQLDFTRKTLAEKKQELDKLRNEWASHTAALTNKHSQELTNEKEKALQAQVQYQQQHEQQKKDLEILHQQNIHQLQNRLSELEAANKDLTERKYKGDSTIRELKAKLSGVEEELQRTKQEVLSLRRENSTLDVECHEKEKHVNQLQTKVAVLEQEIKDKDQLVLRTKEAFDTIQEQKVVLEENGEKNQVQLGKLEATIKSLSAELLKANEIIKKLQGDLKTLMGKLKLKNTVTIQQEKLLAEKEEKLQKEQKELQDVGQSLRIKEQEVCKLQEQLEATVKKLEESKQLLKNNEKLITWLNKELNENQLVRKQDVLGPSTTPPAHSSSNTIRSGISPNLNVVDGRLTYPTCGIGYPVSSAFAFQNTFPHSISAKNTSHPGSGTKVQFNLQFTKPNASLGDVQSGATISMPCSTDKENGENVGLESKYLKKREDSIPLRGLSQNLFSNSDHQRDGTLGALHTSSKPTALPSASSAYFPGQLPNS [SASS6]”: the thermal stability score is 0.985 in the data set with HeLa Kyoto [1] (setting [5]) and 0.832 in the data set with HeLa Kyoto [1] (cell cycle stage: mitosis). Besides, the “solubility in G1/S (log2)” value in the data set on HeLa Kyoto [2] amounted to 0.537. Besides, the melting temperature is 48.2 °C with HeLa Kyoto [3] (cell cycle stage: G1/S) and 49.3 °C with HeLa Kyoto [3] (cell cycle stage: mitosis). In addition, in the data set on HeLa Kyoto [4], the “solubility change mitosis (log2)” value was -0.0259.
“MSRGPSSAVLPSALGSRKLGPRSLSCLSDLDGGVALEPRACRPPGSPGRAPPPTPAPSGCDPRLRPIILRRARSLPSSPERRQKAAGAPGAACRPGCSQKLRVRFADALGLELAQVKVFNAGDDPSVPLHVLSRLAINSDLCCSSQDLEFTLHCLVPDFPPPVEAADFGERLQRQLVCLERVTCSDLGISGTVRVCNVAFEKQVAVRYTFSGWRSTHEAVARWRGPAGPEGTEDVFTFGFPVPPFLLELGSRVHFAVRYQVAGAEYWDNNDHRDYSLTCRNHALHMPRGECEESWIHFI [PPP1R3D]”: the thermal stability score with HeLa Kyoto [1] (setting [5]) is -0.613; in the data set on HeLa Kyoto [1] (cell cycle stage: mitosis), -0.713. The “solubility in G1/S (log2)” value in the data set on HeLa Kyoto [2] is 0.0302. Also, the melting temperature stood at 51.7 °C with HeLa Kyoto [3] (cell cycle stage: G1/S) and 50.8 °C in the data set with HeLa Kyoto [3] (cell cycle stage: mitosis). For the same sequence, the “solubility change mitosis (log2)” value with HeLa Kyoto [4] was -0.164.
For the sequence “MSRIEKMSILGVRSFGIEDKDKQIITFFSPLTILVGPNGAGKTTIIECLKYICTGDFPPGTKGNTFVHDPKVAQETDVRAQIRLQFRDVNGELIAVQRSMVCTQKSKKTEFKTLEGVITRTKHGEKVSLSSKCAEIDREMISSLGVSKAVLNNVIFCHQEDSNWPLSEGKALKQKFDEIFSATRYIKALETLRQVRQTQGQKVKEYQMELKYLKQYKEKACEIRDQITSKEAQLTSSKEIVKSYENELDPLKNRLKEIEHNLSKIMKLDNEIKALDSRKKQMEKDNSELEEKMEKVFQGTDEQLNDLYHNHQRTVREKERKLVDCHRELEKLNKESRLLNQEKSELLVEQGRLQLQADRHQEHIRARDSLIQSLATQLELDGFERGPFSERQIKNFHKLVRERQEGEAKTANQLMNDFAEKETLKQKQIDEIRDKKTGLGRIIELKSEILSKKQNELKNVKYELQQLEGSSDRILELDQELIKAERELSKAEKNSNVETLKMEVISLQNEKADLDRTLRKLDQEMEQLNHHTTTRTQMEMLTKDKADKDEQIRKIKSRHSDELTSLLGYFPNKKQLEDWLHSKSKEINQTRDRLAKLNKELASSEQNKNHINNELKRKEEQLSSYEDKLFDVCGSQDFESDLDRLKEEIEKSSKQRAMLAGATAVYSQFITQLTDENQSCCPVCQRVFQTEAELQEVISDLQSKLRLAPDKLKSTESELKKKEKRRDEMLGLVPMRQSIIDLKEKEIPELRNKLQNVNRDIQRLKNDIEEQETLLGTIMPEEESAKVCLTDVTIMERFQMELKDVERKIAQQAAKLQGIDLDRTVQQVNQEKQEKQHKLDTVSSKIELNRKLIQDQQEQIQHLKSTTNELKSEKLQISTNLQRRQQLEEQTVELSTEVQSLYREIKDAKEQVSPLETTLEKFQQEKEELINKKNTSNKIAQDKLNDIKEKVKNIHGYMKDIENYIQDGKDDYKKQKETELNKVIAQLSECEKHKEKINEDMRLMRQDIDTQKIQERWLQDNLTLRKRNEELKEVEEERKQHLKEMGQMQVLQMKSEHQKLEENIDNIKRNHNLALGRQKGYEEEIIHFKKELREPQFRDAEEKYREMMIVMRTTELVNKDLDIYYKTLDQAIMKFHSMKMEEINKIIRDLWRSTYRGQDIEYIEIRSDADENVSASDKRRNYNYRVVMLKGDTALDMRGRCSAGQKVLASLIIRLALAETFCLNCGIIALDEPTTNLDRENIESLAHALVEIIKSRSQQRNFQLLVITHDEDFVELLGRSEYVEKFYRIKKNIDQCSEIVKCSVSSLGFNVH [RAD50]”, the figures for the thermal stability score with HeLa Kyoto [1] (setting [5]) and with HeLa Kyoto [1] (cell cycle stage: mitosis) were 2.17 and 3.45, respectively. Further, the “solubility in G1/S (log2)” value in the data set on HeLa Kyoto [2] was -0.129. Further, the melting temperature in the data set with HeLa Kyoto [3] (cell cycle stage: G1/S) came out at 48.8 °C; in the data set on HeLa Kyoto [3] (cell cycle stage: mitosis) it was 49.7 °C. For the same sequence, the “solubility change mitosis (log2)” value with HeLa Kyoto [4] is -0.108.
